Measured values as given in US20090226442A1 (Biogen, published 2009).
Residue numbers refer to the chain shown, from its start.

B1: 1P3B2 murine monoclonal anti-RON antibody (antibody, V domains shown)
VH: EVQLQQSGPELEKPGASVKISCKASGYSFTGYNMNWVKQSNGESLEWIGDIDPYYGGTRYNQKFKGKATLTVDKSSSTAYMQLKSLTSEDSAVYYCAREGRGFAYWGQGTLVTVSA
VL: DIQMTQSPASLSASVGETVTITCRASENIYSYLAWYQKKQGKSPQLLVYNAKTSVEGVPSRFSGSGSGIQFSLKINSLQPEDFGSYYCHCQHHYGTLPTFGGGTKLEIK
notes: Whole murine hybridoma antibody; kappa light chain; also called 1P3B2.2; PTA-8813
B2: 1P4A3 murine monoclonal anti-RON antibody (antibody, V domains shown)
VH: B1 VH with K19M, N41T, E43K, G56D, V72A, A97T
VL: DIQMTQSPASLSASVGETVTITCRASENIYSYLAWYQQKQGKSPQLLVYNAKTLAGGVPSRFSGSGSGTQFSLKINSLQPEDFGSYYCQHYYGTPLTFGAGTKLELK
notes: Whole murine hybridoma antibody; kappa light chain; also called 1P4A3.3; 1.P4A3.3
B3: 1P4A12 murine monoclonal anti-RON antibody (antibody, V domains shown)
VH: EVQLQQSGPELVKPGASMKISCKASGYSFTGYTMNWVKQSHGKKLEWIGLINPYNGGTIYNQKFKGKATLTVDKSSSTAYMELLSLTSEDSAVYYCARWLRRGGYAMDYWGQGASVTVSS
VL: DILLTQSPAILSVSPGERVSFSCRASQSIGTSIHWYQQRTNGSPRLLIKFASESISGIPSRFSGSGSGTDFTLSINSVESEDIADYYCQQSDSWPLTFGAGTKLEVK
notes: Whole murine hybridoma antibody; kappa light chain; also called 1P4A12.2; 1.P4A12.2
B4: 1P5B10 murine monoclonal anti-RON antibody (antibody, V domains shown)
VH: B3 VH with K23R, S25A, Y27F, K44S, P53L, Y54N, I59S, Y60H, A114I
VL: B3 VL with S28N, F50Y, V106L
notes: Whole murine hybridoma antibody; kappa light chain; also called 1P5B10.3; 1.P5B10.3.10
B5: 1P2E7 murine monoclonal anti-RON antibody (antibody, V domains shown)
VH: DVQLQESGPGLVKPSQSLSLTCTVTGDSITSDYAWNWIRQFPGNKLEWMGYISYSGSTSYNPSLKSRFSITRDTSKNQFFLQLNSVTTEDSATYYCARGGFYYRYAGPGFAYWGQGTLVTVSA
VL: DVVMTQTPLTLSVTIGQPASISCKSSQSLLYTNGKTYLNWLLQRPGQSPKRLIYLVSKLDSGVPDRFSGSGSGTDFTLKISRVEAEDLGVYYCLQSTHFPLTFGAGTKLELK
notes: Whole murine hybridoma antibody; kappa light chain; also called 1P2E7.3; 1.P2E7.3

Key:
[1] = molecular target: T1, PSI domain of RON (G502-P544) thioredoxin fusion protein (human, UniProt Q04912 526-568); experiment: ELISA on plate-coated PSI domain thioredoxin fusion
T1 construct: Expressed in E. coli; also called PSI domain alone; not shown: thioredoxin (printed 'thiroedexin') fusion partner; purified on
T1 chain: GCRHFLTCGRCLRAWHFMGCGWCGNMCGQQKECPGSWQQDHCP
Protocol: The ability of the antibodies to bind to soluble RON was measured using a standard ELISA protocol. Briefly, soluble RON protein (R&D Systems, catalog 1947) was coated on Nunc Maxisorb ELISA plates at a concentration of […] in PBS overnight at 4° C. Plates were washed 4 times with an automatic washer in PBS, 0.05% Tween 20. Plates were then blocked in PBS+1% BSA for 1-2 hours at room temperature (RT). After washing, serial dilutions of the antibodies in blocking buffer were added to the plate (100 ul/well) and incubated for 1-2 hours at RT. The plate was washed again 4× with automatic washer (PBS, 0.05% tween 20). Next, the plate was incubated with HRP-labelled donkey anti-mouse polyclonal antibody (Jackson Labs 715-035-130) at a dilution of 1:4000 in blocking buffer (100 ul/well) for 0.5-1 hour RT. The plate was washed again 4× with automatic washer (PBS, 0.05% Tween 20). After the final wash step, the plate was developed with TMB solution (25 ml 100 mM sodium acetate, pH to 6 with citric acid, 4 ul 30% H202, 250 ul 42 mM TMB in DMSO) for 5 minutes. The reaction was stopped with 100 ul H₂SO₄. Plates were read at 450 nm wavelength on Molecular Devices Spectramax M5 and Softmax pro V5 software was used to analyze the data.
The PSI domain of RON (G502-P544) was expressed in E. coli as a thiroedexin-fusion protein. The protein was purified on NiNTA agarose (qiagen) followed by preparative size exclusion chromatography (SEC). This protein was used to coat ELISA plates and analyze antibodies for binding using the same protocol described above for binding of antibodies to soluble RON in Example 10.

[2] = molecular target: T2, human RON (recepteur d'origine nantais, MST1R), full length, expressed on cells (human, UniProt Q04912 25-1400); experiment: flow cytometry on SW480 tumor cells, 4P fit (apparent affinity)
T2 construct: On SW480 tumor cells it is endogenous; also called hRON; SW480-RON cells
Protocol: The binding of RON antibodies to RON expressing tumor cells was analyzed by flow cytometry, and an apparent affinity was calculated. Confluent SW480 cells were detached with 5 mM EDTA, washed 1× with FACS buffer (1% FCS, 0.05% sodium azide, 1×PBS) and resuspended at 0.5-1.0×10⁷/ml. The cells were added to a 96-well V bottom polypropylene plate at 100 μl/well. Antibody dilutions were made up in FACS buffer at 2× final concentration and added to the plate at 100 μl/well. The plate was incubated for 1 hour at 4° C., followed by washing 3× with FACS buffer. The cell pellets were then resuspended in 150 μl of PE labeled goat anti-murine IgG H & L secondary antibody, diluted 1/200, and incubated for 1 hour at 4° C. The cells were then washed 1× with FACS buffer and fixed with 150 μl 3% formaldehyde at room temperature for 10 minutes. The cell pellets were resuspended in 150 μl FACS buffer and analyzed by FACS. The EC50 of binding was calculated from the binding curves using a standard 4P fit equation.

Binder | binding result [1] | EC50 [2]
B1 | no binding | 0.04 nM
B2 | no binding | 0.07 nM
B3 | no binding | 0.07 nM
B4 | no binding | 0.34 nM
B5 | no binding | 0.09 nM
